Reference: article PMC7696373

Target: isoform CBd of the basic phospholipase A2 (PLA2) subunit of crotoxin (Crotalus durissus terrificus)
Test: crystal structure

isoform CBd of the basic phospholipase A2 (PLA2) subunit of crotoxin (enzyme)
stoichiometry N: 4
